What was measured:
[1] = test system: GPI anchored proteins (endogenous ALPL) on HeLa cells; test: Transduction of HeLa cells after PI/PLC removal of GPI anchored proteins; format: cell-based, human; settings: 1E4 VG/cell
Method: Endogenous ALPL was also removed from the surface of HeLa cells by treatment with increasing concentrations phosphatidylinositol-specific phospholipase C (PI/PLC), which cleaves GPI anchored proteins (0, 1, 3, 6, or 10 U/mL), for 1.5 hours at 37° C. Following PI/PLC treatment, cells were incubated with 1E4 VG/cell for three hours of AAV particles comprising the TTM-002 capsid variant or AAV particles comprising an AAV9 control capsid, cells were then washed to remove free virus, and luciferase activity was measured 24 hours post-transduction (RLU).

[2] = test system: brains and tissues (liver quadriceps, and heart); test: NGS fold enrichment of capsid variants in marmosets; format: in vivo, marmosets (Callithrix jacchus); settings: 2E13 vg/kg IV, 28 days
Excerpt: To investigate tropism in marmoset monkeys, AAV particles comprising the TTM-001 capsid variant, the TTM-002 capsid variant, an AAV9 capsid variant comprising SEQ ID NO: 966, or an AAV9 control, were intravenously injected into NHPs (n=2, >10 months of age) at a dose of 2E13 vg/kg (8.75E12 vg/mL). After 28-days in life, the brains and tissues (liver quadriceps, and heart) of the NHPs were collected and RNA was extracted. Following RNA recovery and RT-PCR amplification, a systematic NGS enrichment analysis was performed to calculate the fold enrichment ratio relative to the AAV9 wild-type control.

[3] = target: T1, isoform 1 (Alkaline phosphatase, placental-like 2 (ALPPL2)) (Homo sapiens, UniProt P10696); test: Transduction assay in HEK 293T cells expressing isoform 1; format: cell-based; settings: for Luciferase Activity (RLU): Table 30, Isoform 1 transfected cells; for increase in transduction in cells expressing isoform 1: luciferase activity (RLU)
T1 construct: expressed in transfected cells; host or cells: HEK 293T
T1 sequence (P10696 20-503): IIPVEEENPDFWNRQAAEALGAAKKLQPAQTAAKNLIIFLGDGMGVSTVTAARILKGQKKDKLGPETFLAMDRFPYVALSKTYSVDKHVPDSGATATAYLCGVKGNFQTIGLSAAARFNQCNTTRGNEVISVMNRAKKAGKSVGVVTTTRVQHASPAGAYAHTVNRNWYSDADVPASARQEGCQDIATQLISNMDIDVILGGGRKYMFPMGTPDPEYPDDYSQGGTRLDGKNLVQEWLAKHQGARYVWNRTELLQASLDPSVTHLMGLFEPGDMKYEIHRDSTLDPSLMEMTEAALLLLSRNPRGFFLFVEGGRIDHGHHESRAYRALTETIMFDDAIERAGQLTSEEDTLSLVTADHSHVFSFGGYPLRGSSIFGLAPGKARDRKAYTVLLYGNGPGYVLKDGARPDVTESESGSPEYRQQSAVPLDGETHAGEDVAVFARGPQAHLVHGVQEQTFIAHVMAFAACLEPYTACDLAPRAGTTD
Excerpt: (§1) Three isoforms of ALPL exist, isoform 1 (Alkaline phosphatase, placental-like 2 (ALPPL2), NM_031313, which is incorporated by reference herein), isoform 2 (alkaline phosphatase, placental (ALPP), NM_001632, which is incorporated by reference herein), and isoform 3 (alkaline phosphatase, intestinal (ALPLI), NM_001631, which is incorporated by reference herein), that can also be expressed on cell surfaces via a GPI-anchor. Isoform 1 is 56.25% identical and 72.54% similar (gaps: 4.17%) to ALPL, isoform 2 is 54.96% identical and 71.37% similar (gaps: 2.29%) to ALPL, and isoform 3 is 55.98% identical and 72.11% similar (gaps: 3.04%) to ALPL. The transduction assay described above was repeated with the three isoforms. HEK 293T cells were transfected via calcium phosphate transfection with a plasmid expressing ALPL, isoform 1 of ALPL, isoform 2 of ALPL, isoform 3 of ALPL, an AAVR positive control, or a pCMV6 negative control. […] At 24-hours post-transduction, luciferase activity (RLU) was measured to quantify AAV cellular transduction.

[4] = target: T2, isoform 2 (alkaline phosphatase, placental (ALPP)) (Homo sapiens, UniProt P05187); test: Transduction assay in HEK 293T cells expressing isoform 2; format: cell-based; settings: for Luciferase Activity (RLU): Table 30, Isoform 2 transfected cells; for increase in transduction in cells expressing isoform 2: luciferase activity (RLU)
T2 construct: expressed in transfected cells; host or cells: HEK 293T
T2 sequence (P05187 23-506): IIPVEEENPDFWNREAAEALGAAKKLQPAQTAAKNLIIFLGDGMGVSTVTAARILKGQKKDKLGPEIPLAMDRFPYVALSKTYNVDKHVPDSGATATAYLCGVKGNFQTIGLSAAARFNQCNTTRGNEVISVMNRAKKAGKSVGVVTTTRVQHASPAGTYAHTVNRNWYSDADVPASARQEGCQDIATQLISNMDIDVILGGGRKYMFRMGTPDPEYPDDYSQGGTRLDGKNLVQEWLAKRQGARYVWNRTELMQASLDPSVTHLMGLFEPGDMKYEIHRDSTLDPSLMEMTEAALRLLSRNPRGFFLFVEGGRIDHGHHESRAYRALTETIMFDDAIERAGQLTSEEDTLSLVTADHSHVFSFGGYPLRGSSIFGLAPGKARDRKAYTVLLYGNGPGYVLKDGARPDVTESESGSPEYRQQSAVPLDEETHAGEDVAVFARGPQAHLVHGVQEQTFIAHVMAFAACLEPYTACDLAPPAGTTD
Excerpt: as §1

[5] = target: T3, isoform 3 (alkaline phosphatase, intestinal (ALPLI)) (Homo sapiens, UniProt P09923); test: Transduction assay in HEK 293T cells expressing isoform 3; format: cell-based; settings: for Luciferase Activity (RLU): Table 30, Isoform 3 transfected cells; for increase in transduction in cells expressing isoform 3: luciferase activity (RLU)
T3 construct: expressed in transfected cells; host or cells: HEK 293T
T3 sequence (P09923 20-503): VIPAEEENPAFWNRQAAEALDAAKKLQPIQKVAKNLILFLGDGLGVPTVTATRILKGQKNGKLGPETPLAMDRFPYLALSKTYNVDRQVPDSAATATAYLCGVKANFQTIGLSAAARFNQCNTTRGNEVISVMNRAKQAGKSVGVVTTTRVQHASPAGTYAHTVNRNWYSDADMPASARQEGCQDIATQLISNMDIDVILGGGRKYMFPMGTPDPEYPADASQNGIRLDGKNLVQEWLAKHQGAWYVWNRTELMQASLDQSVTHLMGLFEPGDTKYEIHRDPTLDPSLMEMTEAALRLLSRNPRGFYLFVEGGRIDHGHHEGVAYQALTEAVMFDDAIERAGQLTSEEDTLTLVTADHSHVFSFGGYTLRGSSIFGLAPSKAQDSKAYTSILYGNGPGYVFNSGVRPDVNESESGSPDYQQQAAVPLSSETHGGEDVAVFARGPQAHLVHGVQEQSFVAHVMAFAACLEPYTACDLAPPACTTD
Excerpt: as §1

AAV9: wild-type AAV9 control capsid [reference compound]
Transduction in HeLa as measured by luciferase assay (RLU) following treatment with PI/PLC ([1]; PI/PLC 0 U/mL): 239.3 RLU
Transduction in HeLa as measured by luciferase assay (RLU) following treatment with PI/PLC ([1]; PI/PLC 1 U/mL): 193.7 RLU
Transduction in HeLa as measured by luciferase assay (RLU) following treatment with PI/PLC ([1]; PI/PLC 3 U/mL): 222 RLU
Transduction in HeLa as measured by luciferase assay (RLU) following treatment with PI/PLC ([1]; PI/PLC 6 U/mL): 207.7 RLU
Transduction in HeLa as measured by luciferase assay (RLU) following treatment with PI/PLC ([1]; PI/PLC 10 U/mL): 212 RLU

B1: TTM-001: AAV9 capsid variant comprising SPHSKA (SEQ ID NO: 941) in loop IV (protein)
chain 1: MAADGYLPDWLEDNLSEGIREWWALKPGAPQPKANQQHQDNARGLVLPGYKYLGPGNGLDKGEPVNAADAAALEHDKAYDQQLKAGDNPYLKYNHADAEFQERLKEDTSFGGNLGRAVFQAKKRLLEPLGLVEEAAKTAPGKKRPVEQSPQEPDSSAGIGKSGAQPAKKRLNFGQTGDTESVPDPQPIGEPPAAPSGVGSLTMASGGGAPVADNNEGADGVGSSSGNWHCDSQWLGDRVITTSTRTWALPTYNNHLYKQISNSTSGGSSNDNAYFGYSTPWGYFDFNRFHCHFSPRDWQRLINNNWGFRPKRLNFKLFNIQVKEVTDNNGVKTIANNLTSTVQVFTDSDYQLPYVLGSAHEGCLPPFPADVFMIPQYGYLTLNDGSQAVGRSSFYCLEYFPSQMLRTGNNFQFSYEFENVPFHSSYAHSQSLDRLMNPLIDQYLYYLSKTINGSGSPHSKAQNQQTLKFSVAGPSNMAVQGRNYIPGPSYRQQRVSTTVTQNNNSEFAWPGASSWALNGRNSLMNPGPAMASHKEGEDRFFPLSGSLIFGKQGTGRDNVDADKVMITNEEEIKTTNPVATESYGQVATNHQSAQAQAQTGWVQNQGILPGMVWQDRDVYLQGPIWAKIPHTDGNFHPSPLMGGFGMKHPPPQILIKNTPVPADPPTAFNKDKLNSFITQYSTGQVSVEIEWELQKENSKRWNPEIQYTSNYYKSNNVEFAVNTEGVYSEPRPIGTRYLTRNL
chain 2: GSGSPHSKAQNQQT
expression relative to AAV9 in the heart of marmosets [2]: a significant increase in expression relative to AAV9
fold increase in expression relative to AAV9 in the brain of marmosets [2]: 703.3 fold
Luciferase Activity (RLU) [3]: 4,072 RLU
increase in transduction in cells expressing isoform 1 [3]: did not occur
Luciferase Activity (RLU) [4]: 7,456 RLU
increase in transduction in cells expressing isoform 2 [4]: did not occur
Luciferase Activity (RLU) [5]: 3,300 RLU
increase in transduction in cells expressing isoform 3 [5]: did not occur

B2: TTM-002: AAV9 capsid variant comprising HDSPHK (SEQ ID NO: 2) in loop IV (protein)
chain 1: MAADGYLPDWLEDNLSEGIREWWALKPGAPQPKANQQHQDNARGLVLPGYKYLGPGNGLDKGEPVNAADAAALEHDKAYDQQLKAGDNPYLKYNHADAEFQERLKEDTSFGGNLGRAVFQAKKRLLEPLGLVEEAAKTAPGKKRPVEQSPQEPDSSAGIGKSGAQPAKKRLNFGQTGDTESVPDPQPIGEPPAAPSGVGSLTMASGGGAPVADNNEGADGVGSSSGNWHCDSQWLGDRVITTSTRTWALPTYNNHLYKQISNSTSGGSSNDNAYFGYSTPWGYFDFNRFHCHFSPRDWQRLINNNWGFRPKRLNFKLFNIQVKEVTDNNGVKTIANNLTSTVQVFTDSDYQLPYVLGSAHEGCLPPFPADVFMIPQYGYLTLNDGSQAVGRSSFYCLEYFPSQMLRTGNNFQFSYEFENVPFHSSYAHSQSLDRLMNPLIDQYLYYLSKTINGHDSPHKSGQNQQTLKFSVAGPSNMAVQGRNYIPGPSYRQQRVSTTVTQNNNSEFAWPGASSWALNGRNSLMNPGPAMASHKEGEDRFFPLSGSLIFGKQGTGRDNVDADKVMITNEEEIKTTNPVATESYGQVATNHQSAQAQAQTGWVQNQGILPGMVWQDRDVYLQGPIWAKIPHTDGNFHPSPLMGGFGMKHPPPQILIKNTPVPADPPTAFNKDKLNSFITQYSTGQVSVEIEWELQKENSKRWNPEIQYTSNYYKSNNVEFAVNTEGVYSEPRPIGTRYLTRNL
chain 2: GHDSPHKSGQNQQT
expression relative to AAV9 in the heart of marmosets [2]: a significant increase in expression relative to AAV9
fold increase in expression relative to AAV9 in the brain of marmosets [2]: 366.6 fold
Luciferase Activity (RLU) [3]: 1,114 RLU
increase in transduction in cells expressing isoform 1 [3]: did not occur
Luciferase Activity (RLU) [4]: 3,465 RLU
increase in transduction in cells expressing isoform 2 [4]: did not occur
Luciferase Activity (RLU) [5]: 2,074 RLU
increase in transduction in cells expressing isoform 3 [5]: did not occur
transduction after PI/PLC treatment ([1]; HeLa, luciferase 24 hours): significantly decreased transduction
Transduction in HeLa as measured by luciferase assay (RLU) following treatment with PI/PLC ([1]; PI/PLC 0 U/mL): 1731 RLU
Transduction in HeLa as measured by luciferase assay (RLU) following treatment with PI/PLC ([1]; PI/PLC 1 U/mL): 474 RLU
Transduction in HeLa as measured by luciferase assay (RLU) following treatment with PI/PLC ([1]; PI/PLC 3 U/mL): 441 RLU
Transduction in HeLa as measured by luciferase assay (RLU) following treatment with PI/PLC ([1]; PI/PLC 6 U/mL): 396.7 RLU
Transduction in HeLa as measured by luciferase assay (RLU) following treatment with PI/PLC ([1]; PI/PLC 10 U/mL): 239.3 RLU

From US20260250318A1, “COMPOSITIONS AND METHODS FOR CROSSING THE BLOOD BRAIN BARRIER” (VOYAGER THERAPEUTICS, INC., priority 2022, published 2026)
